From patent publication CN112552406A (WUJIANG NOVOPROTEIN SCIENT INC, dated 2021) come the findings set out here.

The target in test [1] is T1, 人CD73 on SK-OV-3细胞 (人卵巢腺癌细胞) (human, UniProt P21589 27-549).
T1 construct: whole, on cells; CD73-positive human cell line; also called SK-OV-3细胞上CD73; 人CD73阳性细胞
T1 sequence (looked up): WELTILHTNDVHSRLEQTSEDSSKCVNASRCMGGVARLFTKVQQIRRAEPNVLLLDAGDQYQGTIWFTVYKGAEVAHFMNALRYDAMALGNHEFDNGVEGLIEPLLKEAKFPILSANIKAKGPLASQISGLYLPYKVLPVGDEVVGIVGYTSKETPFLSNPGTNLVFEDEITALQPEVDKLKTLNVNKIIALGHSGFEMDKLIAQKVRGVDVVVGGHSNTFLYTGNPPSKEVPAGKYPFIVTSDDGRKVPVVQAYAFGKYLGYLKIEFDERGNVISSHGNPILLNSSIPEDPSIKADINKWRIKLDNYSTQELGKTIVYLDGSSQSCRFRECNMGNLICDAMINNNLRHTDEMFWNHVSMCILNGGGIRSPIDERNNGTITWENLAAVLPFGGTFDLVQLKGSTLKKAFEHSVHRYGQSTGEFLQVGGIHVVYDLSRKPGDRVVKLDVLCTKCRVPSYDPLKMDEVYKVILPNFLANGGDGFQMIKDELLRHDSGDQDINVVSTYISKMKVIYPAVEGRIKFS
As to the kind of experiment: flow cytometry on SK-OV-3 cells. For orientation: Flow cytometry measures light scatter and fluorescence of single cells or particles in a stream.

Test [2] has as its target T2, 猴CD73全长 on CHOK1-cynoCD73细胞 (猴 (cyno), UniProt A0A2K5V5U7 27-549).
T2 sequence: T1 sequence (looked up) with M199T, T350A, V466I
As to the kind of experiment: cell-based or functional assay.

Test [3] has as its target T1, 人CD73 on SK-OV-3细胞 (人卵巢腺癌细胞). The test can be described thus: cell-based or functional assay.
Test [4] has as its target T2, 猴CD73全长 on CHOK1-cynoCD73细胞. As to the kind of experiment: flow cytometry on CHOK1-cynoCD73 cells, Anti-hFC-APC detection.
The target of test [5] is T1, 人CD73 on SK-OV-3细胞 (人卵巢腺癌细胞). The test can be described thus: flow cytometry on SK-OV-3 cells, Anti-hFC-APC detection.
The target of the next test is T3, 重组人CD73蛋白 (human, UniProt P21589 27-547).
T3 construct: also called rhCD73; 重组hCD73蛋白
T3 sequence (looked up): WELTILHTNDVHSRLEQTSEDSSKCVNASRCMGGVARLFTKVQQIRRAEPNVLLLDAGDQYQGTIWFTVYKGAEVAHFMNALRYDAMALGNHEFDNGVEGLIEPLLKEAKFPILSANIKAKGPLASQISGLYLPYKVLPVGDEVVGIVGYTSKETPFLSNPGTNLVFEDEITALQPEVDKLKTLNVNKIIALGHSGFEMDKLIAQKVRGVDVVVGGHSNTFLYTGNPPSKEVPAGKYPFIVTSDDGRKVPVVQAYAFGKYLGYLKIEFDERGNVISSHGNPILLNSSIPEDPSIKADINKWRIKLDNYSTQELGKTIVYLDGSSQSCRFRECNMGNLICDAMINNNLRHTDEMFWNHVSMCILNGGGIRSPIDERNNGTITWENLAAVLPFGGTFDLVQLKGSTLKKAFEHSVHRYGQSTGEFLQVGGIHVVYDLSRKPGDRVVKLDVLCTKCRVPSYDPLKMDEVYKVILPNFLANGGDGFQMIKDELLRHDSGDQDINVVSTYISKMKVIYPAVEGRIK
As to the kind of experiment: Biacore (SPR), CQ137 immobilised, CD73 protein 2.5nM-40nM. On the technique in general: SPR reads the build-up and loss of mass on a sensor chip optically.

For the next test, the target named is T4, 重组猴CD73蛋白 (猴 (monkey; cyno per the cell line name), UniProt A0A2K5V5U7 27-547).
T4 sequence: T3 sequence (looked up) with M199T, T350A, V466I
The test can be described thus: ELISA, recombinant monkey CD73 coated at 3μg/ml. For orientation: ELISA stands for enzyme-linked immunosorbent assay.

Changes are numbered by the printed parent chain.

B1: 人源化CQ137单抗(137-2) (antibody, V domains shown)
VH: QVQLVQSGAEVKKPGASVKVSCKASGYSFTGYYIHWVRQAPGQGLEWMGRINPYNGATTYNQNFKDRVTMTVDKSTSTAYMELRSLRSDDTAVYYCARFHYGAPDYWGQGTLVTVSS
VL: DIQMTQSPSSLSASVGDRVTITCKASQDINTYLTWFQQKPGKAPKSLIYRANILVDGVPSRFSGSGSGTDFTLTISSLQPEDFATYYCLQYDEFPLTFGGGTKVEIKR
notes: also called hCQ137
B1: the binding result in test [1] is listed as “binds”.

B2: 人源化CQ137单抗(137-1) (antibody, V domains shown)
VH: B1 VH with S28T
VL: B1 VL with S46T, T69Q, F71Y
notes: also called hCQ137
B2: in test [1], the binding result is recorded as “binds”.

B3: 人源化CQ137单抗(137-3) (antibody, V domains shown)
VH: B1 VH with A16S, M70I, R84S, D89E
VL: B1 VL with F36Y, S46T
notes: also called hCQ137
Turning to B3, in test [1], the binding result is “binds”.

B4: CQ137抗体蛋白 (人鼠嵌合的抗CD73全长抗体) (antibody, human IgG1, kappa, V domains shown)
VH: EVQLQQSGPELVKPGASVKISCKASGYSFTGYYIHWVKQSHVKSLEWIGRINPYNGATTYNQNFKDKASLTVDKSSSTAYMELHSLTSEDSAVYYCARFHYGAPDYWGQGTTLTVSS
VL: DILMTQSPSSMYASLGERVTITCKASQDINTYLTWFQQKPGKSPKTLIYRANILVDGVPSRFSGSGSGQDYSLTISSLEFEDMGIYYCLQYDEFPLTFGAGTKLELKR
For orientation: EC50 means the midpoint of the concentration-response curve. The term Kd denotes the equilibrium constant for the complex coming apart. With B4, in test [2], the “IC50, CHOK1-cynoCD73细胞上CD73酶活抑制 (CellTiter-Glo)” value was found to be 990 ng/mL. Also, the “IC50, SK-OV-3细胞上CD73酶活抑制 (CellTiter-Glo)” value in test [3] came out at 371 ng/mL. Besides, the EC50 in test [4] is 0.0999 ng/mL; in test [5], 0.588 ng/mL; in the test with 重组猴CD73蛋白, 217 ng/mL. In the test with 重组人CD73蛋白, this molecule gave a Kd of 0.0865 nM.

B5: MEDI-9447 (antibody, V domains shown)
VH: EVQLLESGGGLVQPGGSLRLSCAASGFTFSSYAYSWVRQAPGKGLEWVSAISGSGGRTYYADSVKGRFTISRDNSKNTLYLQMNSLRAEDTAVYYCARLGYGRVDEWGRGTLVTVSS
VL: QSVLTQPPSASGTPGQRVTISCSGSLSNIGRNPVNWYQQLPGTAPKLLIYLDNLRLSGVPDRFSGSKSGTSASLAISGLQSEDEADYYCATWDDSHPGWTFGGGTKLTVLG
With B5, the EC50 in test [4] came to 4.12 ng/mL; in test [5] it was 9.63 ng/mL.
